Measured values: patent publication US20240124593A1

Target: human FcRn (human) (UniProt P55899)
Assay: SPR Biacore 3000, antibody immobilised on CM5, hFcRn analyte, pH 7.5, 25 C, 1:1 fit

Sequence of human FcRn (human) (P55899 24-297 limits assumed, chain 1 of 2): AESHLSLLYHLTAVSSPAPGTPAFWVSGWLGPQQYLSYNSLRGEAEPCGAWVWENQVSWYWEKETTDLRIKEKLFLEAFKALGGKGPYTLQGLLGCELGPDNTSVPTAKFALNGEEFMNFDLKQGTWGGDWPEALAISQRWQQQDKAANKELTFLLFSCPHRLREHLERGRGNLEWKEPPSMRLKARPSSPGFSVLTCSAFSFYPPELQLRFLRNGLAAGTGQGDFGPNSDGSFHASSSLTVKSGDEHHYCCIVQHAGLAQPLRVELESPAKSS
Sequence of human FcRn (human) (b2m, as listed by the source limits assumed, chain 2 of 2): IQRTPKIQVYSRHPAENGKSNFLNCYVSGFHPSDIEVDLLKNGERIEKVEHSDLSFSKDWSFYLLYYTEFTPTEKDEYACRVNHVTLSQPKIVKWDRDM

DX-2504 (antibody) gave a Kd of 1.9 nM.
